Consider 2 molecules from patent US7247441B2, “Nucleic acid sequence and protein in addition to polypeptides coding for mannitol dehydrogenases or parts thereof and the production and use thereof in diagnosis and therapy” (Biomay Produktions- Und Handels-Aktienge Sellschaft, priority 2002, dated 2007).

Data set [1] relates to IgE of sera of Alternaria alternata-sensitized patients. The data set can be described thus: IgE immune blot of recombinant Alternaria alternata mannitol dehydrogenase with the sera of 28 patients. In kind it is binding, human. The text has this:
The following procedure was chosen for purifying the recombinantly produced protein, which is provided with a poly-His fragment at the C terminus: the E. coli cells with the expression vector, which express the foreign protein, the Alternaria alternata mannitol dehydrogenase, were first lysed in the customary manner. […] The inclusion bodies formed by overexpression of the foreign protein were first solubilized in a buffer with 6-molar urea and subsequently purified by affinity chromatography over a nickel chelate column. The recombinantly produced mannitol dehydrogenase was applied in 6 M urea buffer. Imidazole buffer was employed for the elution. The protein-comprising fractions were subsequently purified further by preparative SDS-PAGE gel electrophoresis and analyzed, during which process it emerged that the allergen was already purified to virtually complete homogeneity.
The protein prepared in accordance with example 10 was separated by gel electrophoresis and tested in an IgE immune blot with the sera of 28 patients. All of the 28 sera originated from patients who had shown a positive response to the Alternaria alternata crude extract and who had been pretested both in a skin test and in an RAST. A pronounced band was visible in the immune blot in the case of 9 of the patients' sera tested. This corresponds to approximately 32% of the Alternaria alternata-sensitized patients.

A short description of data set [2]: Two-dimensional separation by isoelectric focusing and SDS-PAGE. In kind it is physicochemical. The text has this: (§1) Native purified MtDH was separated under denaturing conditions in an isoelectric focusing (O'Farrel P H, J. Biol. Chem., 1975; 250:4007–21) according to the net charge (isoelectric point) of the protein. Thereafter, the protein separated thus was subjected to SDS gel electrophoresis (Laemmli U K, Nature, 1970; 27:680–5), whereby a separation by molecular weight took place in addition. The protein was transferred to a PVDF membrane in a Western blot (Towbin H et al., Proc. Natl. Acad. Sci. USA, 1979; 76:4350–4). After free binding sites had been saturated (30 minutes in blocking buffer: 50 mM sodium phosphate pH 7.5, 0.5% Tween 20, 0.5% BSA, 0.05% NaN3), the membrane was incubated with patients' serum (1:10 diluted in blocking buffer). Then, the membrane was washed (with blocking buffer, 3×10 minutes) to remove unspecifically bound antibodies. Specifically bound IgE-Ab were detected with the aid of an ^125I-labeled rabbit anti-human IgE antibody. After the membrane had been exposed to an X-ray film, the results were available: […]

Data set [3] concerns IgE antibodies of C. herbarum allergy sufferers. The data set can be described thus: IgE immune blot of the native purified MtDH after separation in the SDS gel. The class given is binding, human. The method, then:
The protein was purified to homogeneity in a conventional method (example 1). The yield amounted to 1 mg.
Native purified MtDH was separated by molecular weight in a reducing SDS gel (Laemmli U K, Nature, 1970; 27:680–5). Subsequently, the protein was transferred onto a PVDF membrane in a Western blot (Towbin H et al., Proc. Natl. Acad. Sci USA, 1979; 76:4350–4). After free binding sites had been saturated (30 minutes in blocking buffer: 50 mM sodium phosphate pH 7.5, 0.5% Tween 20, 0.5% BSA, 0.05% NaN3), the membrane was incubated with patients' serum (1:10 diluted in blocking buffer). Then, the membrane was washed (with blocking buffer, 3×10 minutes) to remove unspecifically bound antibodies. Specifically bound IgE-Ab were detected with the aid of an ^125I-labeled rabbit anti-human IgE antibody. After the membrane had been exposed to an X-ray film, the result was available.

For data set [4] the test system is unchanged. As to the kind of experiment: IgE immune blot of the native purified MtDH after 2-dimensional separation. The class given is binding. The conditions noted are these: patients' serum 1:10, 125I-labeled anti-human IgE.
From the text: as §1

For data set [5], the system named is IgE of patients' sera. The data set can be described thus: IgE immunoblots of Cladosporium herbarum crude extract with sera from 62 patients. In kind it is binding, human. The following applies: sera from 62 patients preselected in skin test or RAST, positive to Cladosporium herbarum extract. The method, then: For the purposes of the present invention, IgE immunoblots of Cladosporium herbarum crude extract were assayed with sera from 62 patients. An immunoreactive protein of molecular weight 29 kD, which was recognized by 61% of the patients' sera, was identified. […] No other allergen in the Cladosporium herbarum extract reacted with such a high percentage of patients' sera. It is therefore assumed that this protein is the major allergen of Cladosporium herbarum.
A general note: A western blot detects proteins with antibodies after separation by electrophoresis.

Data set [6] concerns the target T1, Cladosporium herbarum mannitol dehydrogenase (Cladosporium herbarum, UniProt P0C0Y5).
T1 construct: the enzyme activity was determined with the traditionally purified protein; from tissue; host or cells: Cladosporium herbarum extract (ammonium sulfate precipitation, HIC, anion exchange)
As to the kind of experiment: Enzyme activity determination, absorption of NADPH at 340 nm. In kind it is biochemical. As for the experimental part: The experiments reveal that the highly purified major allergen of Cladosporium herbarum is indeed a mannitol dehydrogenase which catalyzes the following metabolic reaction: Fructose+NADPH+H^+ ? mannitol+NADP^+. […] The method of the activity determination is described in example 3.
To confirm the results according to the invention, the enzyme activity was determined with the traditionally purified protein. The absorption of NADPH was measured in a photometer at 340 nm.
• 50 mM Tris-HCl, pH 7.5 • 0.25 mM NADPH or NADH • D-fructose or fructose-6-phosphate (0.1; 0.2; 0.4; 0.6; 0.8; 1.0; 1.2 M) • H2O to 1 ml • the reaction is started with 0.5 μl of MtDH Results: • Reaction with fructose and NADPH • No reaction with fructose-6-phosphate and NADH

B1: protein prepared in accordance with example 10: recombinantly produced Alternaria alternata mannitol dehydrogenase, seq. ID No. 11, purified over a nickel chelate column, approximately 30 kD (protein, listed as Alternaria alternata)
chain: MPITVPQATELKDLFSLKGKVVIVTGASGPTGIGTEAARGCAEYGADLAITYNSRAEGAEKNAKEMSEKYGVKVKAYKCQVNEYAQCEKLVQDVIKDFGKVDVFIANAGKTADNGILDATVEQWNEVIQTDLTGTFNCARAVGLHFRERKTGSLVITSSMSGHIANFPQEQASYNVAKAGCIHLAKSLANEWRDFARVNSISPGYIDTGLSDFVPQDIQKLWHSMIPMGRDAKATELKGAYVYFASDASSYCTGSDLLIDGGYCVR
Turning to B1, the “share of Alternaria alternata-sensitized patients with a pronounced band” value in data set [1] (28 sera) was “approximately 32%”. In addition, the “patients' sera with a pronounced band in the immune blot” value in data set [1] (of 28 sera positive to Alternaria alternata crude extract) was found to be 9.

B2: native purified MtDH: major allergen of Cladosporium herbarum, a NADP-dependent mannitol dehydrogenase, 29 kD, seq. ID No. 8 (protein, listed as Cladosporium herbarum)
chain: MPGQQATKHESLLDQLSLKGKVVVVTGASGPKGMGIEAARGCAEMGAAVAITYASRAQGAEENVKELEKTYGIKAKAYKCQVDSYESCEKLVKDVVADFGQIDAFIANAGATADSGILDGSVEAWNHVVQVDLNGTFHCAKAVGHHFKERGTGSLVITASMSGHIANFPQEQTSYNVAKAGCIHMARSLANEWRDFARVNSISPGYIDTGLSDFVPKETQQLWHSMIPMGRDGLAKELKGAYVYFASDASTYTTGADLLIDGGYTTR
In data set [2], B2 came in with an isoelectric point of 5.8. The “reaction with IgE antibodies of C. herbarum allergy sufferers” value in data set [3] (SDS gel, patients' serum 1:10, 125I-labeled anti-human IgE) is “reacts specifically”; in data set [4], “reacts specifically”. In addition, the “result in the IgE immunoblot” value in data set [3] (pool of six patients) is reported as “highly positive”. The “patients' sera recognizing the protein” value in data set [5] came out at 61%. The enzyme reaction result in data set [6] (with fructose and NADPH) is reported as “Reaction”; in data set [6] (with fructose-6-phosphate and NADH) it was “No reaction”.
